Like-named read-outs stand apart in the source and are kept apart here.
B1: HNRNPR (protein, UniProt O43390 2-633, looked up)
Heterogeneous nuclear …: ANQVNGNAVQLKEEEEPMDTSSVTHTEHYKTLIEAGLPQKVAERLDEIFQTGLVAYVDLDERAIDALREFNEEGALSVLQQFKESDLSHVQNKSAFLCGVMKTYRQREKQGSKVQESTKGPDEAKIKALLERTGYTLDVTTGQRKYGGPPPDSVYSGVQPGIGTEVFVGKIPRDLYEDELVPLFEKAGPIWDLRLMMDPLSGQNRGYAFITFCGKEAAQEAVKLCDSYEIRPGKHLGVCISVANNRLFVGSIPKNKTKENILEEFSKVTEGLVDVILYHQPDDKKKNRGFCFLEYEDHKSAAQARRRLMSGKVKVWGNVVTVEWADPVEEPDPEVMAKVKVLFVRNLATTVTEEILEKSFSEFGKLERVKKLKDYAFVHFEDRGAAVKAMDEMNGKEIEGEEIEIVLAKPPDKKRKERQAARQASRSTAYEDYYYHPPPRMPPPIRGRGRGGGRGGYGYPPDYYGYEDYYDDYYGYDYHDYRGGYEDPYYGYDDGYAVRGRGGGRGGRGAPPPPRGRGAPPPRGRAGYSQRGAPLGPPRGSRGGRGGPAQQQRGRGSRGSRGNRGGNVGGKRKADGYNQPDSKRRQTNNQQNWGSQPIAQQPLQQGGDYSGNYGYNNDNQEFYQDTYGQQWK
B2: G3BP2: host protein of the core SARS-CoV-2 RNA interactome (protein, UniProt Q9UN86 2-482, looked up)
Ras GTPase-activating …: VMEKPSPLLVGREFVRQYYTLLNKAPEYLHRFYGRNSSYVHGGVDASGKPQEAVYGQNDIHHKVLSLNFSECHTKIRHVDAHATLSDGVVVQVMGLLSNSGQPERKFMQTFVLAPEGSVPNKFYVHNDMFRYEDEVFGDSEPELDEESEDEVEEEQEERQPSPEPVQENANSGYYEAHPVTNGIEEPLEESSHEPEPEPESETKTEELKPQVEEKNLEELEEKSTTPPPAEPVSLPQEPPKAFSWASVTSKNLPPSGTVSSSGIPPHVKAPVSQPRVEAKPEVQSQPPRVREQRPRERPGFPPRGPRPGRGDMEQNDSDNRRIIRYPDSHQLFVGNLPHDIDENELKEFFMSFGNVVELRINTKGVGGKLPNFGFVVFDDSEPVQRILIAKPIMFRGEVRLNVEEKKTRAARERETRGGGDDRRDIRRNDRGPGGPRGIVGGGMMRDRDGRGPPPRGGMAQKLGSGRGTGQMEGRFTGQRR
B3: HNRNPD (protein, UniProt Q14103 2-355, looked up)
Heterogeneous nuclear …: SEEQFGGDGAAAAATAAVGGSAGEQEGAMVAATQGAAAAAGSGAGTGGGTASGGTEGGSAESEGAKIDASKNEEDEGHSNSSPRHSEAATAQREEWKMFIGGLSWDTTKKDLKDYFSKFGEVVDCTLKLDPITGRSRGFGFVLFKESESVDKVMDQKEHKLNGKVIDPKRAKAMKTKEPVKKIFVGGLSPDTPEEKIREYFGGFGEVESIELPMDNKTNKRRGFCFITFKEEEPVKKIMEKKYHNVGLSKCEIKVAMSKEQYQQQQQWGSRGGFAGRARGRGGGPSQNWNQGYSNYWNQGYGNYGYNSQGYGGYGGYDYTGYNNYYGYGDYSNQQSGYGKVSRRGGHQNSYKPY

Experiments:
Type in all cases: binding
[1] = system: gRNA of HCoV-OC43; details: type n_48_v: 48 hours post-infection; for target (spectral count, OC43 Probe I RNP capture): infected cells, unweighted spectral count; for background (spectral count, no-probe control): no-probe control on infected cells
[2] = system: HCoV-OC43 gRNA and sgRNA; details: for target (unweighted spectral count): OC43 Probe II, infected cells; for target (unweighted spectral count, OC43 Probe II) / background (unweighted spectral count, no-probe control): type n_48_v, 48 hpi; for target (unweighted spectral count, OC43 Probe II): OC43 Probe II capture on infected cells; for background (unweighted spectral count, no-probe control): no-probe control on infected cells
[3] = system: SARS-CoV-2 gRNA; details: for target (unweighted spectral count of the protein in the RNP capture): LC-MS/MS, Probe I sample (first 199 lines of Table 2)
[4] = system: SARS-CoV-2 gRNA and sgRNAs
[5] = 24 hpi (type n_24_v), tested against no-probe control

Molecule	target (spectral count, OC43 Probe I RNP capture) [1]	background (spectral count, no-probe control) [1]	target (unweighted spectral count, OC43 Probe II capture) ([2]; 36 hpi, type n_36_v, tested against no-probe control, FDR<10%)	target (unweighted spectral count) ([2]; 12 hpi (type n_12_v), tested against no-probe control)	target (unweighted spectral count) [2, 5]	target (unweighted spectral count, OC43 Probe II) [2]	background (unweighted spectral count, no-probe control) [2]	target (unweighted spectral count of the protein in the RNP capture) [3]	enrichment in SARS-CoV-2 Probe II RNP capture [4]	background (unweighted spectral count in control) ([4]; no-probe control pull-down, used as background for Probe II)	enrichment in SARS-CoV-2 Probe I RNP capture [3]
B1	63	4	52	13	24	76	4	32	–	–	–
B2	–	–	–	–	–	–	–	25	enriched	1	enriched
B3	26	2	–	–	17	36	2	37	–	–	–
